Reference: EP2469278A1, “Reagentless fluorescent biosensors from nanofitins, rational design methods to create reagentless fluorescent biosensors and methods of their use” (Institut Pasteur, priority 2010, dated 2012)
“And” between values parts separate entries of the source, which are not always exact repeats. Equal values may be shown once.

Legend:
hen egg-white lysozyme [1] = target: T1, hen egg-white lysozyme (hen, UniProt P00698 19-147); experiment: Biacore kinetics, HEL immobilised; Kd' = koff/kon
T1 construct: also called HEL

hen egg-white lysozyme [2] = target: T1, hen egg-white lysozyme; experiment: Biacore, HEL immobilised; Kd'' dissociation constant at steady state
hen egg-white lysozyme [3] = target: T1, hen egg-white lysozyme; experiment: competition Biacore in solution, buffer D; free H4S measured on immobilised HEL
hen egg-white lysozyme [4] = target: T1, hen egg-white lysozyme; experiment: Biacore kinetics, HEL immobilised on CM5 chip, buffer E (reducing), 25 °C, 1:1 Langmuir model
[5] = target: T2, hen egg-white lysozyme (HEL) (Gallus gallus, UniProt P00698); experiment: Titration of H4S conjugates with HEL, monitored by fluorescence; type: binding; settings: for sr: relative sensitivity of the conjugate at a fixed concentration of 0.3 µM (Equation 8), buffer C
T2 construct: hen egg-white lysozyme (HEL); purchased Sigma
Protocol: (§1) The binding and fluorescence experiments were performed at equilibrium as if the preparations of conjugates were homogeneous, i. e. as if yc = 1. The binding reactions were conducted by incubating 0.3 µM of conjugate with variable concentrations of the HEL or BSA antigens in a volume of 1 mL, for 30 min in the dark with gentle shaking. The reactions were carried out in Buffer C or in a mixture v:(1-v) of calf serum and Buffer C as indicated in example 2.
The conjugate (or biosensor) B and antigen A form a 1:1 complex B:A according to the reaction: B + A↔B:A [formula] At equilibrium, the concentration [B:A] of the complex is given by the equation: [B:A] = 0.5{[B]0+[A]0+Kd-(((([B]0+[A]0+Kd))^2-4[B]0[A]0))^(1/2)} [formula] where Kd is the dissociation constant, and [A]0 and [B]0 are the total concentrations of A and B, respectively (Renard et al., 2003).
The fluorescence of the IANBD conjugates was excited at 485 nm (5 nm slit width) and its intensity measured between 520 and 550 nm (20 nm slit width) with a FP-6300 spectrofluorometer (Jasco). The signal of HEL alone or BSA alone was measured in an independent experiment and subtracted from the global signal of the binding mixture to give the specific fluorescence intensity F of each conjugate. The intensity F at a given value of [A]0 satisfies the following equation: (F-F0)/F0 = ΔF/F0 = (ΔF∞/F0)([B:A]/[B]0) [formula] where F0 and F∞ are the values of F at zero and saturating concentrations of A (Renard et al., 2003). The values of ΔF∞/F0, Kd, and [B]0 could be determined by fitting Equation 5, in which [B:A] is given by Equation 4, to the experimental values of ΔF/F0, measured in a titration experiment. The fittings were performed with the Kaleidagraph software (Synergy Software).
The sensitivity s and relative sensitivity sr of a conjugate can be defined by the following equations for the low values of [A]0, i. e. in the initial part of the titration curve: ΔF = s[A]0 [formula] ΔF/F0 = sr [A]0 /[B]0 [formula] s and sr can be expressed as functions of characteristic parameters of the conjugate: sr = (ΔF∞/F0)([B]0/(Kd+[B]0)) [formula] s = fb sr [formula] where fb = F0/[B]0 is the molar fluorescence of the free conjugate (Renard and Bedouelle, 2004). Equation 8 implies that sr is maximal when the biosensor B is present at a concentration [B]0 >> Kd, as every newly titrated molecule A then forms a complex. Equation 6 implies that the lower limit of detection δ[A]0 of the conjugate is linked to the lower limit of measurement of the spectrofluorometer δF by the following equations: δ[A]0 = s^-1 δF = sr^-1 [B]0 (δF/F0) [formula]

[6] = target: bovine serum albumin (BSA) (Bos taurus, UniProt P02769); experiment: Specificity: titration of H4S conjugates with heterologous antigen BSA, monitored by fluorescence; settings: for ΔF∞/F0: BSA as antigen, buffer C, 0.3 µM conjugate; for relative sensitivities sr lower for BSA than for HEL: [B]0 = 0.3 µM
[7] = target: T2, hen egg-white lysozyme (HEL); experiment: Selectivity: fluorescence signal of conjugate in mixtures of calf serum and buffer C; type: binding; settings: 0.3 µM conjugate, 10 µM HEL
Protocol: as §1
The selectivity of a biosensor refers to the extent to which it can recognize a particular analyte in a complex mixture without interference from other components (Vessman et al., 2001). The selectivity of the H4S(K24ANBD) conjugate was characterized by comparing its fluorescence properties in serum and in buffer C. More specifically, the variations of the F0 and F10µM parameters were measured as functions of the concentration in serum (Figure 3). Given that Kd = 0.1 µM for H4S(K24ANBD), this conjugate was fully saturated with HEL at 10 µM. […] As expected, the absorbance of the serum alone increased linearly with its concentration, in agreement with the Beer-Lambert law, at both 485 nm and 536 nm, which were the wavelengths of fluorescence excitation and emission in our experiments. […] The same increase and decrease was observed when measuring the fluorescence of a conjugate between IANBD and 2-mercaptoethanol. […]

hen egg-white lysozyme [8] = target: T1, hen egg-white lysozyme; experiment: fluorescence titration in solution, 0.3 µM conjugate, buffer C, 25 °C
hen egg-white lysozyme [9] = target: T1, hen egg-white lysozyme; experiment: from Kd in solution: fluorescence titration of conjugate against competition Biacore of H4S(wt)
bovine serum albumin = target: T3, bovine serum albumin (bovine, UniProt P02769 25-607); experiment: fluorescence titration with BSA, 0.3 µM conjugate, buffer C
T3 construct: Heterologous antigen used as specificity control; also called BSA

Row | Kd (hen egg-white lysozyme [1]) [nM] | Kd (hen egg-white lysozyme [2]) [nM] | koff (hen egg-white lysozyme [4]) [s⁻¹] | kon (hen egg-white lysozyme [4]) [M⁻¹ s⁻¹] | Kd (hen egg-white lysozyme [8]) [nM] | ΔF∞/F0 (maximal relative variation of fluorescence on HEL binding) (hen egg-white lysozyme [8]) | ΔΔG (conjugate against H4S(wt)) (hen egg-white lysozyme [9]) | Molecule | other results
1 | 31 | 18 | 0.015 | 490000 |  |  |  | H4S(wt) (designed binder, Nanofitin derived from Sac7d (Sulfolobus acidocaldarius), H4 with Cys29 changed into Ser29; His-tagged; also called H4S protein; parental Nanofitin H4S(wt)) MRGSHHHHHHGSVKVKFFWNGEEKEVDTSKIVWVKRAGKSVLFIYDDNGKNGYGDVTEKDAPKELLDMLARAEREKKLN | Kd (hen egg-white lysozyme [3]): 40.3 nM
2 |  |  |  |  |  |  |  | Ala26: H4S conjugate: residue Ala26 changed into cysteine and coupled with IANBD (SEQ ID NO: 62) (conjugate, IANBD fluorophore on Cys26) MRGSHHHHHHGSVKVKFFWNGEEKEVDTSKIVWVKRCGKSVLFIYDDNGKNGYGDVTEKDAPKELLDMLARAEREKKLN | sr ([5]; HEL): 4.66; ΔF∞/F0 [6]: 0.73 ± 0.04; relative sensitivities sr lower for BSA than for HEL [6]: 36 fold
3 |  |  |  |  |  |  |  | Lys24: H4S conjugate: residue Lys24 changed into cysteine and coupled with IANBD (SEQ ID NO: 61) (conjugate, IANBD fluorophore on Cys24) MRGSHHHHHHGSVKVKFFWNGEEKEVDTSKIVWVCRAGKSVLFIYDDNGKNGYGDVTEKDAPKELLDMLARAEREKKLN | Kd ([5]; HEL, rounded value quoted in text, read-out: Kd): 100 nM; lower limit of detection δ[A]0 ([5]; [B]0 = 0.3 µM, δF/F0 = […] (Equation 10)): 0.35 nM; sr ([5]; HEL): 6.61; sr ([5]; HEL, listed as H4S(Lys24ANBD)): 6.6; (F10µM - F0)/F0 ([7]; in ≤ 50 % serum): ≥ 0.25; concentration of serum in which the conjugate could still operate ([7]; serum (v/v) in buffer C): ≤ 50%; ΔF∞/F0 [6]: 0.26± 0.01; relative sensitivities sr lower for BSA than for HEL [6]: 106 fold
4 |  |  |  |  | 296 | 6.3 | ≥ 0.5 kcal/mol and ≤ 1.2 kcal/mol | H4S conjugate, IANBD fluorophore coupled at position Val21 (designed binder, Cys at position 21 (H4S numbering) coupled to IANBD ester (ANBD)) MRGSHHHHHHGSVKVKFFWNGEEKEVDTSKICWVKRAGKSVLFIYDDNGKNGYGDVTEKDAPKELLDMLARAEREKKLN | 
5 |  |  |  |  | 100 | 0.36 | ≤ 0.5 kcal/mol | H4S conjugate, IANBD fluorophore coupled at position Thr46 (designed binder, Cys at position 46 (H4S numbering) coupled to IANBD ester (ANBD)) MRGSHHHHHHGSVKVKFFWNGEEKEVDTSKIVWVKRAGKSVLFIYDDNGKNGYGDVCEKDAPKELLDMLARAEREKKLN | 
6 |  |  |  |  | 126 | 1.65 | ≥ 0.5 kcal/mol and ≤ 1.2 kcal/mol | H4S conjugate, IANBD fluorophore coupled at position Lys39 (designed binder, Cys at position 39 (H4S numbering) coupled to IANBD ester (ANBD)) MRGSHHHHHHGSVKVKFFWNGEEKEVDTSKIVWVKRAGKSVLFIYDDNGCNGYGDVTEKDAPKELLDMLARAEREKKLN | 
7 |  |  |  |  | 33 | 0.55 | ≤ 0.5 kcal/mol | H4S conjugate, IANBD fluorophore coupled at position Ser29 (designed binder, Cys at position 29 (H4S numbering) coupled to IANBD ester (ANBD)) MRGSHHHHHHGSVKVKFFWNGEEKEVDTSKIVWVKRAGKCVLFIYDDNGKNGYGDVTEKDAPKELLDMLARAEREKKLN | 
8 | 332 | 389 | 0.011 | 40000 |  |  |  | H4S cysteine mutant V21C (not conjugated) (designed binder, Free cysteine mutant, measured in reducing conditions) MRGSHHHHHHGSVKVKFFWNGEEKEVDTSKICWVKRAGKSVLFIYDDNGKNGYGDVTEKDAPKELLDMLARAEREKKLN | 
9 |  |  |  |  | 42 | 0.26 | ≤ 0.5 kcal/mol | H4S conjugate, IANBD fluorophore coupled at position Phe7 (designed binder, Cys at position 7 (H4S numbering) coupled to IANBD ester (ANBD)) MRGSHHHHHHGSVKVKFCWNGEEKEVDTSKIVWVKRAGKSVLFIYDDNGKNGYGDVTEKDAPKELLDMLARAEREKKLN | 
10 | 60 | 54 | 0.023 | 380000 |  |  |  | H4S cysteine mutant A26C (not conjugated) (designed binder, Free cysteine mutant, measured in reducing conditions) MRGSHHHHHHGSVKVKFFWNGEEKEVDTSKIVWVKRCGKSVLFIYDDNGKNGYGDVTEKDAPKELLDMLARAEREKKLN | 
11 |  |  |  |  | 206 | 7.9 | ≥ 0.5 kcal/mol and ≤ 1.2 kcal/mol | H4S(A26ANBD) (designed binder, Cys at position 26 (H4S numbering) coupled to IANBD ester (ANBD), also called Ala26) MRGSHHHHHHGSVKVKFFWNGEEKEVDTSKIVWVKRCGKSVLFIYDDNGKNGYGDVTEKDAPKELLDMLARAEREKKLN | Kd (bovine serum albumin): 1400 nM
12 |  |  |  |  | 189 | 1.47 | ≥ 0.5 kcal/mol and ≤ 1.2 kcal/mol | H4S conjugate, IANBD fluorophore coupled at position Trp8 (designed binder, Cys at position 8 (H4S numbering) coupled to IANBD ester (ANBD)) MRGSHHHHHHGSVKVKFFCNGEEKEVDTSKIVWVKRAGKSVLFIYDDNGKNGYGDVTEKDAPKELLDMLARAEREKKLN | 
13 | 38 | 24 | 0.012 | 310000 |  |  |  | H4S cysteine mutant K39C (not conjugated) (designed binder, Free cysteine mutant, measured in reducing conditions) MRGSHHHHHHGSVKVKFFWNGEEKEVDTSKIVWVKRAGKSVLFIYDDNGCNGYGDVTEKDAPKELLDMLARAEREKKLN | 
14 | 117 | 104 | 0.023 | 160000 |  |  |  | H4S(K24C) (not conjugated) (designed binder, Free cysteine mutant, measured in reducing conditions) MRGSHHHHHHGSVKVKFFWNGEEKEVDTSKIVWVCRAGKSVLFIYDDNGKNGYGDVTEKDAPKELLDMLARAEREKKLN | 
15 | 68 | 66 | 0.03 | 450000 |  |  |  | H4S cysteine mutant W8C (not conjugated) (designed binder, Free cysteine mutant, measured in reducing conditions) MRGSHHHHHHGSVKVKFFCNGEEKEVDTSKIVWVKRAGKSVLFIYDDNGKNGYGDVTEKDAPKELLDMLARAEREKKLN | 
16 |  |  |  |  | 2480 | 6.6 | ≥ 1.5 kcal/mol | H4S conjugate, IANBD fluorophore coupled at position Tyr42 (designed binder, Cys at position 42 (H4S numbering) coupled to IANBD ester (ANBD)) MRGSHHHHHHGSVKVKFFWNGEEKEVDTSKIVWVKRAGKSVLFIYDDNGKNGCGDVTEKDAPKELLDMLARAEREKKLN | 
